Measurements published in patent US20240287172A1 (SCIRHOM, published 2024).
Changes are numbered by the printed parent chain.

T1: hiR2-FL-H590A-T7 (human, UniProt Q6PJF5 1-856)
T1 sequence: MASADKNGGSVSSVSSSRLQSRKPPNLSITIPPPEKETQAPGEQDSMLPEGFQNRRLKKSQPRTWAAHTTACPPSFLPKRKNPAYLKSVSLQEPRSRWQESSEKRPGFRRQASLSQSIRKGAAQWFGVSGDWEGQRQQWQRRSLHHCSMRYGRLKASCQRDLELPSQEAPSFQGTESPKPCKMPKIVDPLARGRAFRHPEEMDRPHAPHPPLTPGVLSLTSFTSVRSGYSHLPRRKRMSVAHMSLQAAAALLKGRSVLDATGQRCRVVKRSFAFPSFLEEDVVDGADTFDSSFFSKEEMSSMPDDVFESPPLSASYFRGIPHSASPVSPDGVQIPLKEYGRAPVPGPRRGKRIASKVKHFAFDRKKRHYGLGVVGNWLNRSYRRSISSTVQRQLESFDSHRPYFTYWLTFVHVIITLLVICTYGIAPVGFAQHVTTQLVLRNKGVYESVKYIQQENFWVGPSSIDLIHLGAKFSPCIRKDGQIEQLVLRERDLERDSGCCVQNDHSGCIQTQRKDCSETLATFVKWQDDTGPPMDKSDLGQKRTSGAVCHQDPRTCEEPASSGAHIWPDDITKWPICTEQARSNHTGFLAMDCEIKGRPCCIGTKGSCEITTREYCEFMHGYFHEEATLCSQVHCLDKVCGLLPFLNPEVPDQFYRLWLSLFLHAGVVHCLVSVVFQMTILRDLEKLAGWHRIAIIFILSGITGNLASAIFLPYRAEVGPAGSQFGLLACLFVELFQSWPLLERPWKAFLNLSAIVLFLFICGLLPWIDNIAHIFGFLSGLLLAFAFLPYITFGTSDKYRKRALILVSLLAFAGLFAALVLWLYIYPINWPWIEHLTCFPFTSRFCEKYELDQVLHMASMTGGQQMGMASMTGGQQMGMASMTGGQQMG

T2: hiR2-FL-V524A-T7 (human, UniProt Q6PJF5 1-856)
T2 sequence: T1 sequence with V524A, A590H

B1: antibody 48 (antibody, V domains shown)
VH: QVQLQQSGTELVRPGTSVKVSCKASGYAFTNYLIEWVKQRPGQGLEWIGVINPGSGFTKYNEKFKGKATLTADKSSSTVYMHLSSLTSEDSAVYFCARGLYRAMDYWGQGTSVTVSS
VL: DIQMTQSPASQSASLGESVTITCLASQTIATWLAWYQQKPGKSPQLLIYGATTLADGVPSRFSGGGSGTKFSFKISSLQAEDFVSYYCQQLYSTPYTFGGGTKLEIK
notes: mouse IgG, kappa light chain; also called clone #48; purified antibody 48
B2: antibody 50 (antibody, V domains shown)
VH: B1 VH with T9A, T16A, T30S, V79A, H82Q
VL: B1 VL with A30G, G50A, T52A, T53S, S85N, L91I
notes: mouse IgG, kappa light chain; also called clone #50; purified antibody 50

Assays:
[1] = biological target: T1, hiR2-FL-H590A-T7; assay: FACS on MEF-DKO cells expressing the variant, 3 µg/ml antibody
Procedure, shortened: (§1)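 Primary stain: antibody 3 μg/ml, 1 h on ice; controls buffer alone. Secondary: PE anti-mouse IgG F(ab′)2 1:100, 1 h on ice, light-protected. Washes at 4° C; read by flow cytometry.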

[2] = biological target: T2, hiR2-FL-V524A-T7; assay: as above
Procedure, shortened: as §1

Binder | loss of binding vs wild type [1] | loss of binding vs wild type [2]
B1 | ≥ 30% | 
B2 |  | ≥ 30%
